Test: yeast display, Sf9 membrane polyspecificity reagent, FACS + sequencing; frameworks hold sequencing errors
How it was run: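 In a synthetic yeast display library (Saccharomyces cerevisiae BJ5465), nanobody expression was induced with galactose for 36–48 hours. FACS gates were set low and high (top ~1%) using anti-HA fluorescence for expression and streptavidin fluorescence for binding of the Sf9 membrane reagent. Each polyreactivity label is drawn from the gate of origin.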

Row | Sequence | polyreactivity (PSR sort gate)
1 | QVQLVESGGGLVQAGGSLRLSCAASGRTFGGNAMGWYRQAPGKERELVAAISSGGSTNYADSVKGRFTISRDNANNTVYLQMNSLKPEDTAVYYCAARGPYWGQGTQVTVSS | low polyreactivity
2 | QVQLVESGRGLVQAGGSLRLSCAASGIIFYENAMGWYRQAPGKERELVADITQSGGSTYYADSVKGRFTISRDNAKNTVYLQMNSLKPEDTGVYYCAADGYDPYGGLYDYWGQGNQVTVSS | low polyreactivity
3 | QVQLVESGRGLVQAGGSLRLSCAASGRIFRVNAMGWYRQAPGKERELVAAISWGGGSTYYADSVKGRFTISRDNAKNTVYLQMNSLKPEDTAVYYCATTLVKSQSRYYYWGQGTQVTVSS | high polyreactivity
4 | QVQLVESGGGLVQAGGSLRLSCAASGSTFFWYGMGWYRQAPGKERELVAAISSDGSTYYADSVKGRFTISRDNAKNTVYLQMNSLKPEDTAVYYCAAQIPWYIYPGSYTMDYWGQGTQVTVSS | low polyreactivity
5 | QVQLVESGGGLVQAGGSLRLSCAASGFTFEDNTMGWYRQAPGKERELVAAITWGGVSTYYADSVKGRFTISRDNAKNTVYLQMNSLKPEDTAVYYCARDYDVYTVYLMDYWGQGTQVTVSS | low polyreactivity
6 | QVQLVESGGGLVQAGGSLRVSCAASGCTFVDYAMCWYRQAPGKERELVAGITSGGSTNYADSVKGRFTISRDNAKNTVYLQMNSVKPEDTAVYDCNADPGQDTPGYTRPEYDYWGQGTQVTVSS | low polyreactivity
7 | QVQLVESGGGLVKAVGSLRLSCAPSGRISGVYAMGWYRQAPGKERELVAAISWSGGPTYYADSVKGRFTISRDNAKNTFYLEMTSLKPEDTAVYYCNGDTGFRSYLRVYWGQGTQVTVSS | low polyreactivity
8 | QVQLVESGGGLVQAGGTLRLSCAASGGIIAINAMVWYRQAPGKERELVAAISWGDGITYYADSVKGRFTISRDNAKNTVYLQMNSLKPEDTAVYYCAADEDEYRGGDETWGQGSQVTVSS | low polyreactivity
9 | QVQLVESGGGLVQAGGSLRISCAASGSIFRQYAMGLYRQAPGKEWELVAAITYSGGNTYYADSVKGRFTISRDNAKNTVYLQMNSLKPEDTAVYYCAADYGSRSWEYNYWGQGTQVTVSS | low polyreactivity
10 | QVQLVESGGGLVQAGGSLRLSCASSGRTFSYYAMGWYRQAPGKERELVAAISTSGGSTYYADSVKGRFTISRDNAKNTVYLQMNSLKPEDTAVYYWAASPYLRFLYGGFGYWGQGTEVTVSS | high polyreactivity
11 | QVQLVESGGGLVQAGGSLRLSCAASGSNILQNAMGWYRQAPGKERELVAAITNGGSTNYADSVKGRFTISRDNAKNTVYLQMNSLKPDDTAVYYCAAYPLYTGSYDRGGYWGQGTQVTVSS | low polyreactivity
12 | QVQLVESRGGLVQAGGSLPLSCAASGSIFSRNALGWYRQAPGKERELVAAITWSGGSTYYADSVKGRFTISRDNAKNTVYLQMNSLKAEDTAVYYCNAKRSSRIKQLEYDYWGKGTQVTVSS | high polyreactivity
13 | QVQLQESGGGLVQAGGTLRLSCAASGSFSADEDMGWYRQAQGKEREFVAGISVGGNTNYADSVKGPFTISRENAKNTVYLQINSLKPEDTAVYYCAVLQDVYDALDFWAQGTQVTVSS | high polyreactivity
14 | QVQLVESVGGLVQAGGSLRLSCPASGSTFTDYAMGWYRQAPGKERELVAANSWSGGSTYYADSVKGRFTISRDNAKNTVYLQMNSLKPEDTAVYYCAFRYHGYDYWGQGTQVTVSS | high polyreactivity
15 | QVQLVESGGGLVQAGGSLRLSCAASGRIFYYNSMGWYREAPGKERELVAAIRSGGGSTYYADSVKGRFTISRDNAKNTVYLQMNSLKPEDTAVYYCAAEPSQRYPWSGYDYWGQGTQVTVSS | low polyreactivity
16 | QVQLVESGGGLVQAGGSLRLSCAASGSTFSLYAMGWYRQATGKERELVASIRGRGGSTNYADSVKGRFTISRDNAKNTVYLQMNSLKPEDTAVYYCAAAVGSVRYDYWGQGTQVTVSS | high polyreactivity
17 | QVQLVESGGGLVQAGGSLRLSCAASGSTFWINAMGWYRQAPGKERELVADISHSAGNTYYADSVKGRFTISRDNAKNTVYLQMNSLKPEDTAVYYCAARRWGVRSGDYYWGQGTQVTVSS | low polyreactivity
18 | QVQLVESGGGLVQAGGSLRLSCAASGRIFPAYAMGWYKQAPGKERELVASIRRGGITYADSVKGRFTISRDNAKNTVYLQMNSLKPEDTAVYYCNADYRGWGYHMDYWGQGTKVTVSS | low polyreactivity
19 | QVQLVESGGGLVQAGGSLRFSCAASGITFSSYGMGWYRQAPGKERELVAAISWDSGSTYYADSVKGRFTISRDNAKNTVYLQMNSLKPEQTAVYYCNAVYYSVYRFDYWGQGTQVTVSS | high polyreactivity
20 | QVQLVESGGGLVQAGGSLRLSCAASGRIFWVYVMGWYRQAPGKERELVADITSIGGSTYYADSVKGRFTISRDNAKNTVDLQMNSLKPEDTAVYYCAAARRPTYCPVYPYFGYEYWGQGTQVTVSS | low polyreactivity
21 | QVQLVESGGGLVQAGGSLRLSCAASGSTFYFNAMGWYRQAPGKERELVAVIDGSGGFTYDADSVKGRFTISRDNAKNTVYLQMNSLKPEDTAVYYCNADLVYNTFIYSGGDEYDYWGQGTQGTVSS | high polyreactivity
22 | QVQLVESGGGIVQAGGSLRLICAASGFTFWDYAMGWHRQAPGKERELVAAISWSGGSTYYADSVKGRFTISRDNAKNTVYLQMNSLKPEDTAVYYCNAVHYSRYVHPGHSMYYWGQGTQVTVSS | low polyreactivity

Row | Sequence | polyreactivity (PSR sort gate)
23 | QVQLVESGGGLVQAGGSLRLSCAASGRIFDDYDMGWYRQAPGKERELVAAISFDGGNTYADSVKGRFTISRDNAKNTVYLQMNSLKPEDTAVYYCARDDTSPGYGDQSSNAAYYYWGQGTQVTVSS | low polyreactivity
24 | QVQLVESGGGLVQAGGSLRLSCAASRLTFYGYGMGWYRQAPGKERELVASITSGGNTYYADSVKGRFTISRDNAKNTVYLRMNSLKPEDTAVYYCAVTAIALYYSSGYYWGQGTQVTVSS | low polyreactivity
25 | QVQLVESGGGLVQAGGSLRLSCAASGYTFQGYAMGWYRQAPGKERELVAGISRSGGRTYYADSVKGRFTISRDNAKNTVYLQMNSLKPEDTAVYYCAASYQVRYDYWGQGTQVTVSS | high polyreactivity
26 | QVQLVESGGGLVQAGGSLRLSCAASGRIFRWYAMGWYRQAPGKERELVASITWNGGSTYYADSVKGRFTISRDNAKNTVYLQMNSLKPEDTAVYYCAVAFYRGPEMGYWGQGTQVTVSS | high polyreactivity
27 | QVQLVESGGGLVQAGGSLRLSCAASGRTFQFYAMGWYRKAPGKEREFVAAIDLRGGSTYYADSVKGRFTISRDNAKNRVYLQMNSLKPEDTAVYYCNATRSKFGYFYRYDYWGQGTQVTVSS | low polyreactivity
28 | QVQLVESGGGLVQAGGSLRLSCAASGRTFSGYAMGWYRQAPGKERELVAAIRGGSTNYADSVKGRFTISRDNAKNTVYLQMNSLKPEDTAVYYCNAKRSWVWAGYDYWGQGTQVTVSS | high polyreactivity
29 | QVQLVESGGGLVQAGGSLRLSCAASGSTFKYYAMGWYRQAPGKERELVAAISRRGGSTYYADSVKGRFTISRDNAKNTVYLQMNSLKPEDTAVYYCAARLPGYYGIGDYWGQGTQVTVSS | high polyreactivity
30 | QVQLVESGGGLVQAGGSLRLSCAASGRIFKYYAKGWYRQAPGKERELVAAISWSGGRTYYADSVKGRFTISRDNAKTTVYLQMNSLKPEDTAVYDCNAASLRYSYTLFDSWGQGTQVTVSS | high polyreactivity
31 | QVQLVESGGGLVQAGGSLRLSCAASGSTILYYGMGWYRQAPGKERELVATITWRGGRTYYADSVKGRFTISRDNAKNTVYLQMNSLKTEDTAVYYCARVRLTTYGYYSWGQGTQVTVSS | high polyreactivity
32 | QVQLVESGGGLVQAGGSLRLSCAASGRNFPYYAMGWYRQAPGKERELVATISSSGGSTYYADSVKGRFTISRDNAKNTVYLQMNSLKPEDTAVYYCAADWYGYRQFHGYYWGQGTQVTVSS | high polyreactivity
33 | QVQLVESGGGLVQAGGSLRLTCAASGGILGYYAMGWYRQEQGKERELVAAISSSVGRTYYADSVKGRFTISRDNAKNSVFLQMNSLKPEDTAVYYCNKDIGRSYNYWGQGTQVTVSS | high polyreactivity
34 | QDQLVESGGGLVQAGGSLRLSCAASGRIFAGYAMGWYRQAPGKERELVASIRSSGSTYYADSVKGRFTISRDNAKNTVYLQMNSLKPEDTAVYYCAARSGYFRSRFDYWGQCTQVTVSS | high polyreactivity
35 | QVKLVESGGGLVQAGGSLRLSCAASGGIFYFNPMGWYRQEPGKERELVASITWSGGNTYYADSVKGRFTISRDIAKNTVSLQMISLKPEDTAVYYCAAYYVTPIYYYWGQGTQVTVSS | low polyreactivity
36 | QVQLVESGGGLVQAGGSLRLICAASGITFDYYVMGWSRQAPGKERELVAVITWSGSTYYADSVKGRFTISRDNAKNTVYLQMNSLKPEDTAVYYCAADWVTYYDFEFYYWGQGTQVTVSS | high polyreactivity
37 | QVQLVESGGGLVQAGGSLRLSCAASGFMFSRYGMGWYRQAPGKERELVAAISGSCGSTYYADSVKGRFTISRDNAKNTVYLQMKSLKPEDTAFYLCATAYSWSNSDWFAYSYDYWGHGTQVTVSS | low polyreactivity
38 | QVQLHESGGGLVQSGGSLRLICAASGSISHYIFMGWYRQAPGKEREFVAGIGYGGTTNNADSVKGRFTISRDNAKNTVYLQMNSLKPEDTAMYYCAAREATEFYLDYWGQGTQVTVSS | low polyreactivity
39 | QFQLVESGGGLVQAGGSLRLSCAASGRIFVQYAMGWYRQATGKQTEFVAAISYRGGSTYYADSVKGRFTISRDNSKITVYLPMNSLKPEDTAVYYCAIVFPYRGKVTLDYWVQGTQVTVSS | low polyreactivity
40 | QVHLQESGGGLVQAGGSLRLSCAASGTIFRFRNMGWHRQAPGKERELVAGINGGTTTYYADSVIGRFTISRDNAKNTVYLQMNSLKPDDTAVYNCAAGASRLTYYDYWGQGTQVTVSS | low polyreactivity
41 | QVQLVESGGGLVQAGGSLRLSCAASGNTFWFYRMGWYRQAPGKERELVAAITSGGSTDYADSVKGRFTISRDNAKNTVYLQMNSLKPEDTAVYYCAAEPVAYYGSSYGYWGQGTQVTVSS | low polyreactivity
42 | QVQLRESGGGLVQAGGSLSLSCAASGTIFYSRYMGWYRQAPGKEREFVASISSGGNTNYADSVKGRFTISRDNAKNTVYLQMNSLKPEDTAVYYCAVNTGLITTCPYWGQGTQVTVSS | high polyreactivity
43 | QVHLVESGGGLVQAGGSLRLSCAASGRTFETYAMGWYRQSPGKERELVAAITTSGGTTYYADSVKGRFTISRDNAKNTVYLQMKSLKPEDTAVYYCAADPWIEDTYGSKAYYYWGQGTQVTVSS | low polyreactivity
